Data on one molecule can be found in article PMC7083938, “NELL2-Robo3 complex structure reveals mechanisms of receptor activation for axon guidance” (Nature Communications, 2020).

Numbering of substitutions follows the chain as printed. A value given as a limit tells only on which side of the number the result lay.

What all share (test): flow cytometry on cells; biotinylated ligand at various concentrations, 30 min at 4 °C in PBS + 0.1% BSA, on Drosophila S2 cells displaying the partner (C-terminal FLAG, rat Neurexin-1 transmembrane helix); Cy5-streptavidin; gated on anti-FLAG positive cells; MFI fit to a single-site model; apparent KD
Conditions in all cases: one partner purified

Assay [1] deals with T1, hRobo3 FN1-3 T604A, biotinylated (human, UniProt Q96MS0 549-870, T604A, biotin on the Avi-tag (BirA)).
T1 construct: human Robo3, FN domains 1-3, P549-L870; source: High Five cells (baculovirus), purified, biotinylated with BirA (general methods)
T1 sequence (looked up): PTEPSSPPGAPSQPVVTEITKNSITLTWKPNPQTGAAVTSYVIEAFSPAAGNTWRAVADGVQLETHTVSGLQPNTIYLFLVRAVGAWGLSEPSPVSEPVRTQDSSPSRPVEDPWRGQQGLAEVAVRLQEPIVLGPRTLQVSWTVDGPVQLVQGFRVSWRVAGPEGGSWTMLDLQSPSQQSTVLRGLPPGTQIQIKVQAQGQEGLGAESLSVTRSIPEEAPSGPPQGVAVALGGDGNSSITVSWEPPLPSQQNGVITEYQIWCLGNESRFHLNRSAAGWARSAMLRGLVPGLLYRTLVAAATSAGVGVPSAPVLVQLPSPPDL

In assay [2] the target is T2, hRobo3 FN1-3 F594A/W602A, biotinylated (human, UniProt Q96MS0 549-870, F594A | W602A, biotin on the Avi-tag (BirA)).
T2 construct: human Robo3, FN domains 1-3, P549-L870; source: High Five cells (baculovirus), purified, biotinylated with BirA (general methods)
T2 sequence (looked up): T1 sequence (looked up) with F46A, W54A, A56T

The target in assay [3] is T3, hRobo3 FN1-3 W635A, biotinylated (human, UniProt Q96MS0 549-870, W635A, biotin on the Avi-tag (BirA)).
T3 construct: human Robo3, FN domains 1-3, P549-L870; source: High Five cells (baculovirus), purified, biotinylated with BirA (general methods)
T3 sequence (looked up): T1 sequence (looked up) with A56T, W87A

In assay [4] the target is T4, hRobo3 FN1-3 N600A/T601A, biotinylated (human, UniProt Q96MS0 549-870, N600A | T601A, biotin on the Avi-tag (BirA)).
T4 construct: human Robo3, FN domains 1-3, P549-L870; source: High Five cells (baculovirus), purified, biotinylated with BirA (general methods)
T4 sequence (looked up): T1 sequence (looked up) with N52A, T53A, A56T

Assay [5] deals with T5, hRobo3 FN1-3 I624A/L626A, biotinylated (human, UniProt Q96MS0 549-870, I624A | L626A, biotin on the Avi-tag (BirA)).
T5 construct: human Robo3, FN domains 1-3, P549-L870; source: High Five cells (baculovirus), purified, biotinylated with BirA (general methods)
T5 sequence (looked up): T1 sequence (looked up) with A56T, I76A, L78A

B1: hNELL2 EGF1-6 displayed on S2 cells (domain or fragment)
chain: not shown
notes: human NELL2, EGF domains 1-6, G397-T637; also called NELL2EGF1-6 WT (Actin 5C, C-terminal FLAG); FLAG-tagged NELL2 EGF1-6; source: Drosophila S2 cells, transiently transfected, on the cell surface; not shown: FLAG, C-terminal, kept; transmembrane helix of rat Neurexin-1, C-terminal, kept
As to B1, the Kd is 7.9 µM in assay [1]; not below 100 µM in assay [2]; 2900 nM in assay [3]; 2900 nM in assay [4]; 6.5 µM in assay [5].
